Source: patent US8624010 (Amgen, dated 2014)

B1: murine B7RP1 (B7 related protein-1), membrane-bound (ligand)
chain: ETEVGAMVGSNVVLSCIDPHRRHFNLSGLYVYWQIENPEVSVTYYLPYKSPGINVDSSYKNRGHLSLDSMKQGNFSLYLKNVTPQDTQEFTCRVFMNTATELVKILEEVVRLRVAANFSTPVISTSDSSNPGQERTYTCMSKNGYPEPNLYWINTTDNSLIDTALQNNTVYLNKLGLYDVISTLRLPWTSRGDVLCCVENVALHQNITSISQAESFTGNNTKNPQETHNNELKVLVPVLAVLAAAAFVSFIIYRRTRPHRSYTGPKTVQLELTDHA
notes: also called mB7RP1; ligand for CRP1
B2: B7.2 (ligand)
chain: VSVETQAYFNGTAYLPCPFTKAQNISLSELVVFWQDQQKLVLYEHYLGTEKLDSVNAKYLGRTSFDRNNWTLRLHNVQIKDMGSYDCFIQKKPPTGSIILQQTLTELSVIANFSEPEIKLAQNVTGNSGINLTCTSKQGHPKPKKMYFLITNSTNEYGDNMQISQDNVTELFSISNSLSLSFPDGVWHMTVVCVLETESMKISSKPLNFTQEFPSPQTYWK
notes: also called CD86; B7.2-Fc; not shown: The Fc part (detected with anti-human Fc) and any linker

Tests used:
[1] = target: T1, murine CRP1-Fc fusion protein (murine; human, UniProt P01857-1 96-330 = IgG part); test: flow cytometry on non-activated mouse splenocytes, double stain with CD45R-PE; detection with goat anti-human Fc-FITC; ligand on the cells is presumably B7RP1
T1 construct: domain: carboxy terminal 235 amino acids of the human Fc gene (isotype IgG1); Made in 293T cells and purified on Protein A. The construct encodes residues 1-147; also called mCRP1-Fc
Experimental: PE conjugated cell marker antibody to CD45R (CD45R is a B-cell marker) or isotype control antibody (rat isotype), or PBS (no stain), were added as indicated at the left side of each individual panel.
(§1) Activated spleen cells for immunostaining were washed in PBS, 0.5% BSA (Path-ocyte 4, ICN Pharmaceuticals) wash buffer, resuspended, and then aliquoted in 100 µl volumes. 15 µg/ml of either the CRP1-Fc fusion protein or the B7RP1-Fc fusion protein was added (1.5 µg/sample) as appropriate, and then the mixtures were incubated on ice for 30 min with occasional mixing. The cells were washed twice in 5.0 ml of wash buffer. Binding of the fusion proteins was visualized with 2 µg of goat-anti-human (GaHuFc-FITC) conjugated secondary antibody in a 100 µl volume for cell staining. Cell marker antibodies conjugated with PE were added with the GaHUFc-FITC, as well as control isotype-PE conjugated antibody controls where indicated (rat isotype). […]
The CRP1-Fc fusion protein was utilized to detect cells that expressed ligands to CRP1, presumably including the B7RP1 protein (see Example 8), by FACS analysis (FIG. 7). Splenocytes were prepared as in Example 8, except the 12 hr T-cell activation step was omitted and the cells were directly analyzed. […] Cells were detected that expressed both the CD45R B-cell marker and the putative ligands for CRP1, presumably including B7RP1 (Example 8).

[2] = target: B1; test: ACAS cell surface display assay, Fc fusion protein on transfected cells, FITC anti-human Fc detection
Experimental: (§2) Figure 5: FIG. 5. Interaction of CRP1-Fc and B7RP1-Fc fusion proteins with membrane-bound proteins expressed in COS-7 cells. COS-7 cells transiently transfected with pcDNA3/CRP1, pcDNA3/B7RP1, or pcDNA3 vector alone. CHO D-cells were transfected with psDRα/hCD28 and stably expressed human CD28 (hCD28). Cells expressing membrane-bound CRP1, B7RP1, or hCD28, are represented in rows as indicated at the left side of the panel. Fc fusion proteins were incubated with the plate-bound cells in columns as indicated at the top of the panel. After incubation, cells were washed, and bound Fc fusion proteins were detected using an anti-human Fc antibody and ACAS (Adherent Cell Analysis and Sorting; ACAS Ultima, Meridian Instruments, Inc., Okemos, Mich.) analysis. Figure 6A: FIG. 6. FACS (Fluorescence-Activated Cell Sorter) analysis of expression of the receptor for B7RP1 (putatively, CRP1) on activated CD4+ and CD8+ T-cells. Mouse splenocytes were activated with PMA and ionomycin for 12 hours. B7RP1-Fc fusion protein, control Fc protein (Mock-Fc), or PBS (no stain), were incubated with the cells, washed, and subsequently incubated with goat-anti-human Fc-FITC conjugated antibody(GaHuFc-FITC) as indicated at the bottom of each panel. […]

B7.2 = target: B2; test: as above
Experimental: as §2

[3] = target: T2, murine B7RP1-Fc fusion protein (murine; human, UniProt P01857-1 96-330 = IgG part); test: flow cytometry on PMA/ionomycin-activated mouse splenocytes, lymphocyte gate; detection with goat anti-human Fc-FITC; no PE stain; receptor on the cells is putatively CRP1
T2 construct: domain: carboxy terminal 235 amino acids of the human Fc gene (isotype IgG1); Made in 293T cells and purified on Protein A. The construct encodes residues 1-269; also called mB7RP1-Fc; muB7RP1-Fc
Experimental: The B7RP1-Fc fusion protein was utilized to detect cells that expressed receptors to B7RP1, presumably including the CRP1 protein (see Example 6), by FACS analysis. Spleens were removed from female C57/Black 6 mice, ground on 100 micron mesh filters to release the lymphocytes, passed through 70 micron filters, and then washed in 50 ml of RPMI-1640. They were pelleted at 1500 rpm, resuspended in fresh RPMI, mixed to break up the clumping cells, and passed through a 40 micron filter. T-cells to be activated were seeded into 6 well plates in RPMI-1640, 5% FBS, 1×PSG, PMA, ionomycin, and incubated at 37° C., 5% CO2 overnight. T-cell activation was checked by visual confirmation after 12 hr.
as §1, with “staining.” for “staining. Cell marker antibodies conjugated with PE were added with the GaHUFc-FITC, as well as control isotype-PE conjugated antibody controls where indicated (rat isotype).”

B1
binding result [1]: binds

B2
binding result [2]: no binding

B3: murine CRP1 (CD28 related protein-1), membrane-bound (receptor)
chain: EINGSADHRMFSFHNGGVQISCKYPETVQQLKMRLFREREVLCELTKTKGSGNAVSIKNPMLCLYHLSNNSVSFFLNNPDSSQGSYYFCSLSIFDPPPFQERNLSGGYLHIYESQLCCQLKLWLPVGCAAFVVVLLFGCILIIWFSKKKYGSSVHDPNSEYMFMAAVNTNKKSRLAGVTS
notes: also called mCRP1; receptor for B7RP1
binding result (B7.2): no binding
binding result [3]: binds
